# Measurements taken from patent publication US11160886B2, “Method for labeling of sensitive and thermosensitive targeting biomolecules with technetium based compounds” (BRACCO IMAGING SPA, priority 2016, dated 2021).
# Tests used:
# αvβ3 integrins = type: in vivo, NOD/SCID mice; conditions: 120 min post injection
# Experimental: Before injection, ^99mTc complexes were purified using a reversed-phase C18 Sep-Pack cartridge to remove the excess of unlabeled ligands. After purification, the activity recovered was further diluted with PBS to obtain a final solution that is <0.5% in EtOH content. The RCP and the stability of the purified complexes were evaluated prior to in vivo administration and for the succeeding 18 h.
# Distribution in Tumor Bearing Mice.
# Tumor uptake studies were performed on complex 9 in NOD/SCID mice to determine the effective capability of the complex to detect in vivo endogenously expressed αvβ3 integrins. For induction of tumor xenografts, M21 (αvβ3 positive) and M21L (αvβ3 negative) cells were subcutaneously injected at a concentration of 5×10^6 cells/mouse and allowed to grow until tumor of 3 mm is palpable. The solution containing the purified radiolabeled peptide (15 μCi/200 μL) was injected intravenously into the tail vein. The animals (n=5) were sacrificed by cervical dislocation at 2 h post injection. Tumors and other tissues (blood, heart, lung, liver, kidneys, stomach, intestine, muscle) were removed, weighed, and the activity was counted in a Nal well counter. The results were expressed as the percentage of injected activity per gram of tissue (% IA/g) and tumor to organ ratios were calculated.
# [1] = Stability in RPMI1640 cell culture medium; type: physicochemical
# Experimental: Before the cell experiments, the stability of the purified complex 9 in RPMI1640 medium was evaluated. The radiolabeled peptide was found stable. Data were compared with those of the ^99mTc-HYNIC-RGDfK labeled compound produced according to literature (Decristoforo C, Santos I, Pietzsch H J, Kuenstler J U, Duatti A, Smith C J, Rey A, Alberto R, Von Guggenberg E, Haubner R. Comparison of in vitro and in vivo properties of [99mTc]cRGD peptides labeled using different novel Tc-cores.Q J Nucl Med Mol Imaging. (2007), 51, 33-41).
# Thus, to a glass test tube containing 990 μL of cell culture media was added 10 μL of a solution containing 10 μCi of complex 9. The mixture was vortexed and incubated at 37° C. for 2 h. At 30 min, 1 and 2 h, 100 μl of the reaction mixture were withdrawn and analyzed by HPLC chromatography. The radiochemical purity (RCP) of the complexes was found >90%.
# Metabolites in the urine = type: in vivo, rats; conditions: urine at 2 and 4 h p.i.
# Experimental: Metabolites in the Urine.
# At 2 and 4 h p.i. the urine was collected directly from the bladder and analyzed by HPLC (FIG. 12).
# [2] = Sera and homogenates stability; type: in vitro ADME, human and rat; conditions: 37° C.
# Experimental: Sera and Homogenates Stability.
# The in vitro stability of complex 1, complex 2, complex 9 and complex 11 was evaluated by monitoring the RCP at different time points using the following procedures. In a propylene test tube 50 μl of purified [^99mTc(N)(PNP3OH)]-compound were added to: a) 450 μl of human serum, b) 450 μl of rat serum, c) 450 μl of homogenate of rat liver and d) 450 μl of homogenate of rat kidneys. The resulting mixture was incubated at 37° C. for 4 h.
# The sample was loaded onto a cartridge, preconditioned with MeOH (1 ml) and equilibrated with water (1 ml), and rinsed with MeOH 5% (3 ml). The activity was eluted with a mixture of EtOH/saline 60% (1 ml). Each fraction was collected and the activity measured using a counter (Cobra II, Packard) to determinate the elution profile. 80% of the loaded activity was collected in the elution fraction. An aliquot of this solution (100 μl) was analyzed by HPLC to assess the degradation of the ^99mTc(N)-complexes (FIG. 11).
# [3] = Isomeric conversion over 24 h at 37° C.; type: physicochemical
# Experimental: Before the experiments for both complex 11 and complex 9, the two isomers were isolated by HPLC and their isomeric conversion was assessed over 24 h at 37° C.
# In addition, a faster b vs a change was noticed. Therefore, for the radiolabeled peptide the mixture of the two isomeric forms in ratio 70/30 was directly utilized for receptor affinity studies.
# [4] = Challenge reactions (transchelation) with excess Cys, GSH or EDTA, RCP by HPLC; type: physicochemical; conditions: Cys 10 mM; for % RCP after incubation with excess Cys: 37° C.
# Experimental: The transchelation studies were performed for some compounds monitoring by HPLC the radiochemical purity (RCP) of the complexes in presence of an excess of exchanging ligands over the time. The experiments were performed in triplicate.
# Challenge experiments were carried out on the purified [^99mTc(N)(PNP3OH)]-labeled small size compounds (complex 1, complex 2, complex 9 and complex 10) using an excess of glutathione (GSH) or Cys. An aliquot (50 μl) of an aqueous stock solution of cysteine hydrochloride (10 mM; 1 mM) was added to a propylene test tube containing PB (250 μl, 0.2 M; pH 7.4), water (100 μl) and the selected [^99mTc(N)(PNP3OH)]-compound (100 μl). The mixture was vortexed and incubated at 37° C. for 24 h. A control reaction containing an equal volume of water, instead of cysteine hydrochloride, was studied in parallel. At 30 min, 1, 3 and 24 h, aliquots of the reaction mixture were withdrawn and analyzed by HPLC chromatography. A similar procedure was applied using GSH (50 μl, 10 mM) as challenge ligand.
# For [^99mTc(N)(PNP3OH)(Cys-Gly-Lys-Gly-ApoMb)]^+ (“Cys-Gly-Lys-Gly” disclosed as SEQ ID NO: 1) additional experiments were conducted using EDTA (50 μl, 10 mM) as exchanging ligand.
substance,measurement,setting,value
[^99mTc(N)(PNP3OH)(Cys-cRGDfK)]^+ [Complex 9],Tumor uptake: M21,"αvβ3 integrins; M21 (αvβ3 positive) tumor, mice",4.38±0.69 % IA/g
same,Tumor uptake: M21L,"αvβ3 integrins; M21L (αvβ3 negative) tumor, mice",1.05 ± 0.62 % IA/g
same,Biodistribution: Blood,αvβ3 integrins; tumor bearing mice,0.03 ± 0.01 % IA/g
same,Biodistribution: Heart,αvβ3 integrins; tumor bearing mice,0.44 ± 0.09 % IA/g
same,Biodistribution: Intestine,αvβ3 integrins; tumor bearing mice,5.05 ± 1.24 % IA/g
same,Biodistribution: Kidney,αvβ3 integrins; tumor bearing mice,3.19 ± 0.18 % IA/g
same,Biodistribution: Liver,αvβ3 integrins; tumor bearing mice,3.87 ± 0.81 % IA/g
same,Biodistribution: Lungs,αvβ3 integrins; tumor bearing mice,1.22 ± 0.25 % IA/g
same,Biodistribution: Muscle,αvβ3 integrins; tumor bearing mice,0.20 ± 0.07 % IA/g
same,Biodistribution: Spleen,αvβ3 integrins; tumor bearing mice,1.51 ± 0.22 % IA/g
same,Biodistribution: Stomach,αvβ3 integrins; tumor bearing mice,0.96 ± 0.20 % IA/g
same,M21/blood ratio,αvβ3 integrins; tumor bearing mice,146
same,M21/liver ratio,αvβ3 integrins; tumor bearing mice,1.13
same,M21/lung ratio,αvβ3 integrins; tumor bearing mice,3.59
same,M21/muscle ratio,αvβ3 integrins; tumor bearing mice,21.9
same,Stability in RPMI1640 medium,[1],found stable
same,Radiochemical purity (RCP) in cell culture media,"[1]; 37° C., 30 min, 1 and 2 h",> 90%
same,"In vivo metabolism (urine HPLC, FIG. 12)",Metabolites in the urine,remained stably incorporated into the structure of the final complex
same,Sera stability,"[2]; human and rat sera, 3 h",high sera stability
same,In vitro stability (HPLC peaks versus control),"[2]; human serum, rat serum, rat kidneys homogenate, rat liver homogenate, 2 h",remarkable in vitro stability
same,Isomeric conversion a vs b,[3],reversible a vs b and b vs a conversion
same,% RCP after incubation with excess Cys,[4]; 3 h,75.93%
same,% RCP after incubation with excess Cys,[4]; 24 h,27.31%
same,Stability toward Cys transchelation relative to neutral complexes,[4]; versus complex 1 and complex 11,higher stability toward Cys transchelation
